This passage reports Kd results from paper PMC4691841.

Common to all, as to test: ITC
(Isothermal titration calorimetry measures the heat released or taken up as one component is titrated into another.)

For assay [1], the target named is histone H3(1-10) peptide (UniProt P68431).
The target of assay [2] is H3(1-10)R2me2a peptide (UniProt P68431).
For assay [3], the target named is H3(1-15)K4me3 peptide (UniProt P68431).
The target of assay [4] is H3(1-15)T3ph peptide (UniProt P68431).

Chain of UHRF1 PHD finger (PHD_(UHRF1)) (Q96T88 298-367): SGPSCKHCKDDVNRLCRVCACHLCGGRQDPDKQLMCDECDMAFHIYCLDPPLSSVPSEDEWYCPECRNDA

On to “PHD_(UHRF1) D347A mutant (from UniProt Q96T88-2 311-380) (domain or fragment)”, for which the dissociation constant Kd in assay [1] is 95 µM.

Consider “PHD_(UHRF1) D350A mutant (from UniProt Q96T88-2 311-380) (domain or fragment)”, for which the dissociation constant (Kd) in assay [1] was 47 µM. Turning to “UHRF1 PHD finger (PHD_(UHRF1)) (from UniProt Q96T88-2 311-380) (domain or fragment)”, the results for the Kd in assay [2], in assay [3] and in assay [4] were 44.9 µM, 7.3 µM and over 500 µM, respectively.

Broadly, the Kd is the free concentration of one partner at which half of the binding sites on the other are occupied at equilibrium, for simple one-to-one binding. Higher therefore signals a looser complex.
